For 21 molecules, binding result and Kd results are on record in article PMC5551578 (The Journal of Experimental Medicine, 2017).

As usually defined, the Kd is a measure of binding affinity in units of concentration. A lower Kd goes with tighter binding.

Residue numbers refer to the chain shown, from its start.

B1: TT-Ab6 (antibody, V domains shown)
VH: EVQLLESGGGLVRPGGSLRLSCAASGFSFNDHYMTWVRQAPGKGLEWVSYISDGRVTTNYAASVKGRFIISRDNTKKTVYLQMNSLTAEDTAVYYCARVGPWPVMKGAFDSWGQGTLVTVSS
VL: DIQMTQSPGTLSLSPGERATISCRASQSVSSDYLVWYQQKPGQAPRLLIYGASRRATGIPDRFSGSGSGTDFTLTISRLEPEDFAVYYCQQYGSSPLFAFGPGTKVEIK
B2: TT-Ab1 (antibody, V domains shown)
VH: QVQLQESGAEVKNLGASVKVSCKASGYIFTNYGITWVRQAPGQGLEWIGWTTIYNGNTNYARKLQGRVTMTTGTSTRTAYMELRSLKSDDTAMYYCARGLRHYHDGSPLEYWGQETTVTVSS
VL: DIVMTQSPGTLSLSPGERVTLSCRASQSVGSSYLAWYQQKPGQTPRLLVFGASSRATGIPDRFSGSGSGTDFTLTISRLEPEDFAVYYCQLYGNSLITFGQGTRLEIK
B3: TT-Ab2 (antibody, V domains shown)
VH: EVQLVESGAEVKKPGASVKLSCKASGYTVTSDYMHWVRQAPGQGLEWMGIINPSDGSTNYPRKFQGRVTMTRDTSTRTVYMEVSSLRSEDTAVYYCAGGGQRFTFDYWGQGATVTVSS
VL: QSALTQPASVSGSPGQSITISCTGTSGNVGSHNLVSWYQQHPGEAPKLVISDINRRPSGVSNRFSGSKSGNTASLTISGLQAEDEADYFCCSYAGNSNVIFGGGTKLTVL
B4: TT-Ab5 (antibody, V domains shown)
VH: EVQLVQSGAEVKKPGSSVKVSCTAPGVTFSTYPIDWVRQAPGQGLEWMGGIIPISGSPKYAQKFQGRVAITADGFTNTAYLELSSLRSEDTAVYYCATRESGYDGQFDYWGQGTLVTVSS
VL: QSVLTQPPSASGTPGQRVTISCTGSTSNIGNNYVYWYQQVPGTAPTLLIYRSNQRPSGVPDRFSGSKSGTSASLAISGLRSEDEADYYCATWDDSLGVVFGGGTKLTVL
B5: H7-Ab5 (antibody, V domains shown)
VH: EVQLVESGAEMRKPGSSVKVSCKASGGTFNTYGISWVRQAPGQGLEWMGGIIPMFGTENHAQKFQGRVTITADKSTSIAYMELSSLTSEDTAVYYCARAPVVGSRNVYYYHGLDVWGQGTTVTVSS
VL: SYELTQPPSVSVSPGQTARITCSGDALPKRYAFWYQQKPGQAPVLVIYKDTERPSGIPERFSGSRSGTTVTLTISGVQAEDEGDYYCQSADSSDPCLFGGGTKLTVL
B6: H7-Ab7 (antibody, V domains shown)
VH: QVQLQESGGGLVQPGGSLRLSCAASGFTFSAYAMNWVRQAPGKGLDWVSGIGGNGGITKYADSVKGRFTISRDNSKKTLYLQMNSLTAEDTAVYYCAKDASWDVRGWFDPWGQGTLVTVSS
VL: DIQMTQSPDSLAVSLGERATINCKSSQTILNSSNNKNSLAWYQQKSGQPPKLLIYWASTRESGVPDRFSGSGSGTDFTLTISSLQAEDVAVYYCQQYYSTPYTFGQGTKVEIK
B7: H7-Ab11 (antibody, V domains shown)
VH: QVQLQESGPRLVKPSQTLSLTCAVSGGSITSNDYNWSWIRQHPGKGLEWIGYIYHSGNTFYNPALESRVSMSVDTSKNQFSLRLTSVTAADTAVYFCARTQRSTVAHIVGPVQGRFHFDYWSQGTLVTVSS
VL: DIQMTQSPGTLSLSPGERVTLSCRASRSVSPYYLAWYQQKPGQAPRLLIYGSSTRATGIPDRFSGSGSGTDFTLTINKLEPEDFAIYYCQQYGRSSGFVFGPGTKVDIK
B8: H7-Ab13 (antibody, V domains shown)
VH: EVQLVESGPGLVKPSQTLSLTCTVSDGTIGSDAYHWSWIRQYPGRGLEWIGSFYYSGNTYYNPSLKSRLTISVDTSKNQFSLKLNSVTAADTAVYYCARNSAYCTDTRCYNGGGWFHPWGQGTTVTVSS
VL: DIVMTQSPGTLSLSPGERATLSCRASQSVSSTYLAWYQQKPGQAPRFLIYGASRRATGIPDRFSGSGSGTDFTLTISRVEPEDFTVYYCQQYGSSPITFGQGTRLEIK
B9: H7-Ab14 (antibody, V domains shown)
VH: EVQLVESGPRLVKPSGTLSLTCAVSDDSISSAGYYWGWIRQSPGKGLEWIAAFFFGGSAYYNPSLKSRLTISTDTSENQFSLSLASVTAADTAVYYCAVIQLSTPPVPFEIWGQGTLVTVSS
VL: EIVMTQSPGTLSLSPGERATLSCRASQIISSNYLAWYQQKPGQAPRLLIFGASSRATGTPDRFSGSGSGTDFTLTISRLEPEDFVVYYCHQYDSSWYTFGQGTKVEIK
B10: H7-Ab12 (antibody, V domains shown)
VH: EVQLVESGPGLVKPAQTLSLTCTVSGGSISSGGDYWSWIRQHPGKGLEWIGYIYYSGNAFYNPSLKSRVSMSVDTSKNQFSLKLSSVSAADTAVYYCARVRGVYFWGQGTLATVSS
VL: EIVMTQSPGTLSLSPGERATLSCRASQSVSSSHLAWYQQKPGQAPRLLIYGASSRATGIPDRFSGSGSGTDFTLTISRLEPEDFAVYYCQQYGSSLPPWTFGQGTKVEIK
B11: H7-Ab8 (antibody, V domains shown)
VH: EVQLVQSGGGVVLPGRSLRLSCAASGFTFSNHGMHWVRQAPGKGLEWMAVIWSDGTTKYYADSVKGRFTISRDNSKNTVYLQMNSLRAEDTAVYYCAREVIYSGYFFDHWGQGTTVTVSS
VL: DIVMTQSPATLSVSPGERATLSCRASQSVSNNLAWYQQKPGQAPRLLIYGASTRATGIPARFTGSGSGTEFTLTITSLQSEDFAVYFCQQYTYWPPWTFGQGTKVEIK
B12: H7-Ab10 (antibody, V domains shown)
VH: WVQLVESGGGLVQPGGSLRLSCVDSGSTFSKYWMTWVRQAPGKGLEWVANIKEDGSKEYYMESLKGRFTISRDNAKNSLYLQISTLRAEDTAVYYCATSSGWRFEVWGRGTTVTVSS
VL: QSALTQPPSASGSPGQSVTISCTGTSSDVGTYNYVSWYQQQADKAPKLIIFDVDKRPSGVPDRFSGSKSGNTASLTVSGLQADDEADYYCSSYAGTKHWIFGGGTKLTVL
B13: H7-Ab6 (antibody, V domains shown)
VH: EVQLVESGGGLVKPGGSLRLSCTASGFTFSDYPMSWVRQAPGKGLEWLSSISTGSTYIYYADSVKGRFTISRDNAQNSMYLQMNSLRAEDTAIYYCARGAKVELALGWYFDLWGRGTLVTVSS
VL: QSVLTQPPSVSAAPGQKVTISCSGSNSNIGNNFVSWYQQLPGTAPKLLIYDNNKRPSGIPDRVSGSKSGTSATLGITGLQTGDEADYYCGTWDNRLSAAVFGGGTKLTVL
B14: H1-Ab59 (antibody, V domains shown)
VH: EVQLVESGPGLVKPSQTLSLTCTVSGGSVSSGGYSWTWIRQPAGKGLEWIGRIYFTGSTNYNPSLKSRITISVDTSKNQFSLRLSSVTAADTAVYYCAREDDFVWGSYRRFAYFDYWGQGTLVTVSS
VL: EIVMTQSPSSLSASVGDRVNITCQASQDISNYLNWYQQKPGEAPKLLIYGASSLQTGVPSRFSGSGSGTNFIFTISSLQPEDLATYYCQQYDNLPMYTFGQGTKVEIK
notes: IgG1; source: HEK293T, transfected with heavy and light chain plasmids; purified mAbs
B15: H1-Ab32 (antibody, V domains shown)
VH: EVQLVESGGGLVQPGGSLRLSCAASSFTFSNYAMSWVRQAPGKGLEWVSLINSGGGDKYYADSVKGRFIVSRDNSKNALYLQMNSLRAEDTAVYFCARVVGRETFGLVIPIYYFDYWGQGDLVTVSS
VL: EIVLTQSPATLSLSPGERATLSCRASQSVSSFLAWYQQKPGQAPRLLIYDASNRATGVPARFSGSGSGTDFTLTISSLEPEDFAVYYCQQCSNWPPLTFGGGTKVEIK
notes: as for B14
B16: H1-Ab30 (antibody, V domains shown)
VH: EVQLVQSGGGLVQPGGSLRLSCAASGFTFSSYAMSWVRQAPGKGLEWVSTISGSGISTYYADSVKGRFTISRDNSKNTLYLQMNSLRADDTAVYYCAKALATHIVMAGTLDFWGQGTLVTVSS
VL: EIVMTQSPATLSVSPEERATLSCRASQSVTNSLAWYQQKPGQAPRLLIYGASTRATGIPARFSGSGSGTEFTLTISSLQSEDFAVYYCQQYNNWPPLTFGGGTKVEIK
notes: as for B14
B17: H1-Ab43 (antibody, V domains shown)
VH: EVQLVESGGNLVQPGGSLTLSCAVSGFAFSNFEANWVRQAPGKGLEWVSYISKSGLTKYYSDSVKGRFTISRDNAKSSLYLQMNSLRAEDTAVYYCVSPIPVAGTMEIYWGQGTLVTVSS
VL: B16 VL with E1D, V3Q, S14F, E16G, V29I, T30R, N31S, S32D, A43P, G68E
notes: as for B14
B18: H1-Ab55 (antibody, V domains shown)
VH: EVQLVESGPGLVKPSETLSLTCTVSGGSISSDYWSWIRQAPGKGLEWLAYIHHNGRTNYNPSLGSRVAISIDTSRSQFSLKLGSVTAADTAVYYCARDQTGIRKSNAFDLWGQGTLVTVSS
VL: DIQLTQSPSSLSASVGDRVTITCRASQNIRSYLNWYQQKPGKAPKLLIYGVSTLQNGVPSRFSGSASGSDFTLTISSLQPEDFATYHCQQSYDTPQTFGPGTKVEIK
notes: as for B14
B19: H1-Ab41 (antibody, V domains shown)
VH: QVQLQESGGGVVQPERSLRLSCAASGFKFSSYAMHWVRQAPGKGLEWVAVFWSDGTTKYYANSVRGRFTVSRDNSKNMLYLQINSLRAEDTAVYYCARGFLLPYYGSSGYEYFFDFWGQGTTVTVSS
VL: AIGMTQSPESLAVSLGERATINCKSGQSILHSSNNKNYLAWYQQKPGQPPKLVIYWASTRESGVPDRFSGSGSETDFTLTISSLQAEDVAVYYCQQYYSTPSFGGGTKVEIK
notes: as for B14
B20: H1-Ab56 (antibody, V domains shown)
VH: EVQLVQSGPGLVKPSETLSLTCTVSGGSISSDYWSWIRQPPGKGLEWIGYIHQNGRTNSNPSLRGRVSMLVDTSESQFSLKLGSVTAADTAVYYCARDQAGIRRSNAFDIWGQGTLVTVSS
VL: DIVMTQSPSSLSASVGDRVTITCRASQSISTYLNWYQQKPGKAPKLLIYAASTLQSGVPSRFSGSASGSEFTLTISSLQPEDFASYYCQQSYDIPQTFGPGTKVEIK
notes: as for B14
B21: H1-Ab19 (antibody, V domains shown)
VH: EVQLVESGGGLVKPGGSLRLSCAASGFTFSSYSMHWVRQAPGKGLEWVSSISSIGTYIYYADSVKGRFTISRDNAKNSLYLQLNSLRVEDTAVFYCATGVTSSYGGYSGYFDSWGQGTLVTVSS
VL: DIVMTQSPSSLSASVGDRVTITCQASQDISKHLNWYQQKPGKAPKLLIYDASNLETGVPSRFSGSGSGTDFSFTISSLQPEDIATYYCQQYDNPFLTFGGGTKVEIK
notes: as for B14

One test concerns the target tetanus toxoid (Clostridium tetani, production strain …, UniProt P04958).
Test: not given
Details: not given
Turning to B1, the binding result is “binds”.
The same measure, in the same setting: next, B2: “binds”; B3: “binds”; B4: “binds”.

A further test concerns the target H7N9 HA (A/Shanghai/1/2013) (Influenza A virus A/Shanghai/1/2013 …, strain).
Test: not given
Details: not given
With B5, the binding result is on record as “binds”.
On the same count and under the same terms, as for B6, the entry is “binds”.
Turning to B7, the binding result is reported as “binds”.
On the same count and under the same terms, next, B8: “binds”.
The same measure, in the same setting: next, B9: “binds”; B10: “binds”.
Same read-out and setting: as for B11, the entry is “binds”; as for B12, “binds”; as for B13, “binds”.

Another test concerns the target T1, H1N1 HA (A/California/04/2009) (Influenza A virus A/California/04/2009 …, UniProt C3W5S1, strain).
T1 construct: source: bought: Sino Biological
Description: SPR. The conditions noted are these: both partners purified.
The molecule B14 gave a Kd of 14 nM.
The same measure, in the same setting: next, B15: 0.56 nM; B16: 0.066 nM; B17: 0.155 nM.
Still for that read-out and setting: as for B18, the figure is 0.467 nM; as for B19, 0.0819 nM.
With B20, the Kd amounted to 0.372 nM.
Same read-out and setting: next, B21: 0.001 nM.
